Test results from IntAct's records for PubMed 26751641.

B1: Chromodomain-helicase-DNA-binding protein 1 (Homo sapiens), O14646 (parent)
chain: MNGHSDEESVRNSSGESSQSDDDSGSASGSGSGSSSGSSSDGSSSQSGSSDSDSGSESGSQSESESDTSRENKVQAKPPKVDGAEFWKSSPSILAVQRSAILKKQQQQQQQQQHQASSNSGSEEDSSSSEDSDDSSSEVKRKKHKDEDWQMSGSGSPSQSGSDSESEEEREKSSCDETESDYEPKNKVKSRKPQNRSKSKNGKKILGQKKRQIDSSEEDDDEEDYDNDKRSSRRQATVNVSYKEDEEMKTDSDDLLEVCGEDVPQPEEEEFETIERFMDCRIGRKGATGATTTIYAVEADGDPNAGFEKNKEPGEIQYLIKWKGWSHIHNTWETEETLKQQNVRGMKKLDNYKKKDQETKRWLKNASPEDVEYYNCQQELTDDLHKQYQIVERIIAHSNQKSAAGYPDYYCKWQGLPYSECSWEDGALISKKFQACIDEYFSRNQSKTTPFKDCKVLKQRPRFVALKKQPSYIGGHEGLELRDYQLNGLNWLAHSWCKGNSCILADEMGLGKTIQTISFLNYLFHEHQLYGPFLLVVPLSTLTSWQREIQTWASQMNAVVYLGDINSRNMIRTHEWTHHQTKRLKFNILLTTYEILLKDKAFLGGLNWAFIGVDEAHRLKNDDSLLYKTLIDFKSNHRLLITGTPLQNSLKELWSLLHFIMPEKFSSWEDFEEEHGKGREYGYASLHKELEPFLLRRVKKDVEKSLPAKVEQILRMEMSALQKQYYKWILTRNYKALSKGSKGSTSGFLNIMMELKKCCNHCYLIKPPDNNEFYNKQEALQHLIRSSGKLILLDKLLIRLRERGNRVLIFSQMVRMLDILAEYLKYRQFPFQRLDGSIKGELRKQALDHFNAEGSEDFCFLLSTRAGGLGINLASADTVVIFDSDWNPQNDLQAQARAHRIGQKKQVNIYRLVTKGSVEEDILERAKKKMVLDHLVIQRMDTTGKTVLHTGSAPSSSTPFNKEELSAILKFGAEELFKEPEGEEQEPQEMDIDEILKRAETHENEPGPLTVGDELLSQFKVANFSNMDEDDIELEPERNSKNWEEIIPEDQRRRLEEEERQKELEEIYMLPRMRNCAKQISFNGSEGRRSRSRRYSGSDSDSISEGKRPKKRGRPRTIPRENIKGFSDAEIRRFIKSYKKFGGPLERLDAIARDAELVDKSETDLRRLGELVHNGCIKALKDSSSGTERTGGRLGKVKGPTFRISGVQVNAKLVISHEEELIPLHKSIPSDPEERKQYTIPCHTKAAHFDIDWGKEDDSNLLIGIYEYGYGSWEMIKMDPDLSLTHKILPDDPDKKPQAKQLQTRADYLIKLLSRDLAKKEALSGAGSSKRRKARAKKNKAMKSIKVKEEIKSDSSPLPSEKSDEDDDKLSESKSDGRERSKKSSVSDAPVHITASGEPVPISEESEELDQKTFSICKERMRPVKAALKQLDRPEKGLSEREQLEHTRQCLIKIGDHITECLKEYTNPEQIKQWRKNLWIFVSKFTEFDARKLHKLYKHAIKKRQESQQNSDQNSNLNPHVIRNPDVERLKENTNHDDSSRDSYSSDRHLTQYHDHHKDRHQGDSYKKSDSRKRPYSSFSNGKDHRDWDHYKQDSRYYSDREKHRKLDDHRSRDHRSNLEGSLKDRSHSDHRSHSDHRLHSDHRSSSEYTHHKSSRDYRYHSDWQMDHRASSSGPRSPLDQRSPYGSRSPFEHSVEHKSTPEHTWSSRKT

Variants of: B1
Details: with KDM1A

| Variant | effect of a mutation on the interaction |
| --- | --- |
| D425A | disrupting interaction strength |
